# Measurements: the DeepSol protein solubility set
# Test: soluble on expression in E. coli; label from the status in PepcDB or PDB records
row,Sequence,soluble on expression in E. coli
1,MAHHHHHHMDNSIKIKSAFLKENVGVKITGPCDEGFGLVMVPHIIINVDTRNTDIQLGKKSSEINYGIKLRKKGKDEYEEKVGIDLLKNVCETGKNFKFVAYIKGDELIIKWKVIEEGNIPIDIKKFKIKRMSPPITSIQVFSSMSDEKSFVLENKNYVVTNNMPEKCEALATNCFLSGNIDIEKCYQCSLLVENDSKSDVCYNFISRENKEKLNEERFKVKGSTEYEESVESELKGAIDLLISSFYKSDGENGENVLISFEDLNSTLEDDIINFCSLLKLVDLSGTFMNHQIGTTADAFNNIVKLLKEHKEEDEFVLRTKLRNPALCMKNVDDWVKSRCGLLTSDDSYVVIKKNSDTNGKNENNESNDEEYDGVIDLSTNENGNVKSIQFNDDIYCNDDYCNRWKNENNCISKIGVEDQGNCASSWAFASKLHFETLRCMKGYDHLGISALYLTNCSKGKISKRCTEGGNPSEFLEIVSNSGFLPTEFDYPYFYALVENSCPSGLNKWINLWEDVKLFDYKYEPNSIGSKGYSVYKSEMFKDNMDEYVKMIKSEIKNKGSVIAYINAQSVLTYDFNGKNILNMCGSKTTDHSINVIGYGHYKNKEGEEKSYWLVRNSWGYYWGDEGNFKVDMYGPSNCNYHFINTVLVFNIDIPMMNNNENNKKGLYNYFPKYTHEFYHNFYDQNFGSDNKISLINSNGSNKNDVNNAYTVHGQSGETEVQPSQLRSTANQDSNRGAVTSDPLRTQPETTSTSVKKMDVFQVLKHVKNSKIKVGLIKYDNDDEIGAHHSCTRAYSFDPEKYDECVEFCRKNWEQCKDKPSPGFCLTKLDESKGCFFCYV,not soluble
2,MRKLSKRLLGTVHVATSSTPPGSPFSLVNRQFLLLPTMDKLMGEICREKQIVDRCKMSIDRKEPYDLISMKQQIEISLSKITAMKMRLFHMQNNSETHNSPCSINQQILNTQLLCHGARKVRESLRKDESPNEKVLRETEQTILVLNEKLDLLSNCCSQKESSLTPISVRRSRGGPSKTNNFPVAVSGFLKIRVTGLADLPNNTKHRSGRYASEHFAQLIKKKKSMFGRHGFRRYPNRSSAVNDYIIVIHVGGKEVATMVWNEKKTMVGGDEETIQLFKSRQLDFEIYHTDSRSLCAIGSMQLESLLDEHDAKFPFATFAHRVVNLIPEGTLHFQTTYSDPEQSMEKKLGDTCTDGVSKLAVSMRKSGSVLARGSKTFYSPRTAISLNQFVPLTPSMKSRTRRIDSLDSYRLISEIGVGAFGTVKLGTKDP,not soluble
3,MGSDKIHHHHHHMREKIDALTQNLNRTIVGKTEAIRLVLVALLGGGHALLEDVPGVGKTLLAKSLARSLDGTFQRLQCTPDLLPTDITGTNIWNPKSGEFSFMPGPVFANVVLADEINRATPRTQSALLEVMEEQQVTVDGVSRTVPHPFFVIATQNPVEYQGTFPLPEAQMDRFMLSLSLGYPGVDEELEMLQNLQHGIKVGDLQPCLTLAEVAELREICSQVKVETVLQQYILELVRSTRQDEEITLGVSPRGTVALHKATQALAFLLGRDYAIPDDVKFLAPHVLCHRLIARGGRSARSIVDRLLRSLPIP,not soluble
4,MNRRVPKSKSWKTRLSAGGANRTSLHGQMSRYPEVAEDYLIMQPSIRRSSGSDLMPVARFNNFKRWNSCLQHVESQPEDIREWDPPPPSSHCPQIYHKSQYSRRERSPDILTDDRGRPIPRRGMFLNAKYSEAARPPIDEDRIRHTEDVIKRMLYKGRRKESMGYYPNRNHLMRDQIRQTVYNLGVPNGYRAPEQDHFEDDYDDQPGPSNRHYGVSSHPEYYREDRWRLAEGDYEVDKGDGSRQLNKEKYLKKRRKQMIERESVDSEISEEEEEEEIYNKQTKRRRSQKTPIQHNKNRTESRLHQKEKSSSDEEVHEKSTSSRHSNVSRSSKSPYLNDDRAPSRGSKCTSSHHSTPKLLTPSPQYLKDSDDDDNWKNSIPFMSSSDGAGAGMRVRIGSAIASLPLRDDSKNSYSEVALMLLERSVKNLKNPQKMLIKEKPQTRIMNMSTSWAQQDPKKRNENDDDEIVPETEKAETSLMHDLSRIQHPQNATTVQMDQTLFTNSKLMKIDVAIAKNWLDTKMKKTLIPPPLFRSSPISEDVFKSSDRITMPSTIKGPESTAVGNRISSDGEEEDFATKQFDIDDYIARGASKIDFSKTITAPNTSFQEPSTSLFKDPTFFRQESKGNEMNIESFSERTPSKNRTSQQMEFQISTSSISKTKTNASLDSIHRRKSKPQPMLEFDAETQKMFDDAFQSDKKSTKEKYPF,not soluble
5,MGSDKIHHHHHHMKRTYESGDKMIHTRGKAEGLREKLATILSQDYKELAVQDLKVIGTGVQNIVFRGDSEKGALAFRVPWEREVENINEDLFNSRISLQKEAELSKYCHSKGISVPRIHGLHLSAELDFLISDCVYTDHMPISAHKIGELVSKLHSMPIDDLHYEQNIREPISKYIAERIVKRIEGFNTITNCGMKLPDTKTIEHILSTADHEKSLLHMDIRPANLIGYNGEVKAIVDWDNALIGHPLLELMRIAETNEVSWEEFKDGYKNDSIFNATSHIVSLFYRLDTAVMLANLFIAHLKIEDKGVFYKERVKAIHHEIYKSL,not soluble
6,MAHHHHHHMLLVGFKPCEIVFLVDTLLGSGVSRLPQLFSFFFGGGVHSCARQRKSRKGFAPPNWHPLPRPRRLTAFPYHSQVVAHKRVVRRLLTINNLVFNCCGNLFLPICTLHPKFPFTNDLSQYVVTCEFPPLQLHFSTQAPKNCFRKQLDLVLCSINVAVDVFHPALLRTFRWIC,soluble
7,MAGRVKWVTDIEKSVLINNFEKRGWIQVTENEDWNFYWMSVQTIRNVFSVETGYRLSDDQIVNHFPNHYELTRKDLMVKNIKRYRKELEKEGSPLAEKDENGKYLYLDFVPVTYMLPADYNLFVEEFRKSPSSTWIMKPCGKAQGKGIFLINKLSQIKKWSRDSKTSSFVSQSTKEAYVISVYINNPLLIGGRKFDLRLYVLVSTYRPLRCYMYKLGFCRFCTVKYTPSTSELDNMFVHLTNVAIQKHGEDYNHIHGGKWTVNNLRLYLESTRGREVTSKLFDEIHWIIVQSLKAVAPVMNNDKHCFECYGYDIIIDDKLKPWLIEVNASPSLTSSTANDRILKYNLINDTLNIAVPNGEIPDCKWNKSPPKEVLGNYEILYDEELAQGDGAERELRNRPGQPVGPRAGRSRDSGRSVLTTWK,not soluble
8,GSDDNKTTGATYDPNQPVTVESFMPVEGKLREKVIVKGSNFGTDKSKVKVYFVDEAAERLSTVIGIDNNTLYCLAPRQLPGGNRIKVIVDGKEVTTDGTFKYEQAQNVSTISGSASKDGNDDGDLASAKFKYMWGIAAVGNNTVLAYQRDDPRVRLISVDDNKVTTVHPGFKGGKPAVTKDKQRVYSIGWEGTHTVYVYMKASGWAPTRIGQLGSTFSGKIGAVALDETEEWLYFVDSNKNFGRFNVKTQEVTLIKQLELSGSLGTNPGPYLIYYFVDSNFYMSDQNLSSVYKITPDGECEWFCGSATQKTVQDGLREEALFAQPNGMTVDEDGNFYIVDGFKGYCLRKLDILDGYVSTVAGQVDVASQIDGTPLEATFNYPYDICYDGEGGYWIAEAWGKAIRKYAVE,soluble
9,MELPSMNVPFSRYCWVTLTIQDHLPIDSFRSLNLSITNDNYSGGDLKAYPADFNGILAGNWFTFSPVTYSMKLQYNYTNGAEEATRVRVYCKSPLPYWLPYCG,not soluble
10,MGSDKIHHHHHHMNSKYNFQYFQGSSLSDLFAQDITDGSYGFILNYPATASWAAYPNRKKYFIQDGSSEASKTSFDKICQKEPWKNLAVLGDRIPGIVIIPPPKPLLEYWQEHFGFKHSNIEMMDCSTYLDDLSHSDRFDKLITLFPFDCLKPEKHAVTSDTHYRLLSKVTLEEIGVQCPKYKSYNLHQVNIVDIQLPQFPYLIKTSHGLSGEGTYIIKNPSDLNYCLEEINKYLDIKLLDTIIVSEFIKNEVQNYCVQFYVNKAGEITLIGTTGQLVTPEGNYLGGVIDYGKTDMSKFFEMIANVGDYAHKQGYFGVIGFDVLENQDGQFYAIDANFRVNGSTPLCLQRHTLLRLGKEVAKYSSSYRMEGTLESILITLKPELDRKDLIILSALEKAKYGKIYTELYAIVTGETIAQMQYIEQQLQTKGLQLLS,not soluble
11,GSYAEGQKKRRNTLHEFKKSAKTTLTKEDPLLKIKTKKVNSADECANRCIRNRGFTFTCKAFVFDKSRKRCYWYPFNSMSSGVKKGFGHEFDLYENKDYIRNCIIGKGGSYKGTVSITKSGIKCQPWNSMIPHEHSFLPSSYRGKDLQENYCRNPRGEEGGPWCFTSNPEVRYEVCDIPQCSEV,soluble
12,MGSDKIHHHHHHMIINRSCLKEFAEKVHFLPSSLTKSDLLTDPFRLHQENELGIYYSPHNEFINRDASLVIAGITPGFSQMKTAYETAAESLLQGGTLEQMAVDTKIAAGFSGSMRHNLITMLDLCGLPQAFGIQSAAKLFGELRHMLHTTSVIKYPVFIQQKNYTGYKPAITHSPILSTYAFGHFPAELNHVTGPALLIPLGKAAETVCETLIRQHSLQNLICLNGFPHPSGANGHRLKQFSKNKEQLERQIRSFAALVDFAIEKRK,not soluble
13,MLFHDIHDRAVKALPQILDRLIADGYQFAGWNGRDFSVARAPSATAAATVTTGYAKSWAIVIGIDDYARWPKLEYAANDAQAIANTLTGPLGFPSSQVIVLKNAEATRNNILAAFHDRLGDGRAQTNDRVFVFFAGHGATRRLASGRDLGYIIPVDSDPEHLANDAIAMSDLQNIAESLQAKHVLFVMDACYSGLGLTRGGPSSSAYLRENARRIARQMLTAGGADQQVADSGPNGHSVFTWVVLQALAGKGDLNGDGLITGTELAAYVAPAVSAVSAQTPAFGSLPGSQGGEFVFQVPSGEEFLTADTAQLSAAAIALNGRVDAVRPAAVSLEHHHHHH,soluble
14,LPTGIIIAATPLGNIGDASPRLVHALANATVVAAEDTRRTASLAAALGVEIKGQLVSNFDHNEQARVGKLIEAARTGTVLVVSDAGMPVVSDPGFALIDAAHDANIPVTCFPGPS,not soluble
15,MGSDKIHHHHHHMDKFKTIALFMSTIETGSFSATAKKHATDPSTVSKAIKRLEEQLGLQLLYRSTRQLSLTSAGQKYADTVGSLYQQLESCEHELKSANNSYSGALKINLPVSYGRVYMLPMLSRFKKAYPDIELEVSFNDQYVDMISDAVDVSIRSGTLNDSRLVAQKLSPMAFVICASSDLLATRKVDISNEGLVALPWVLFRFKQTGKTMPINFSYQGCHIDIEPKKVTIVDDGETMAQMCAEGLGLSLMPHFNAKALVVAGKMKVVAILDEFPSSGVFIVYPKRKDLPRRTQVFIEFVKDYLKEIGETPSKTWLDTSINSS,not soluble
16,SPSDVLVIENKHLTKEWPSGGQMMVNNLTAKYTSDGRAVLQDLSFSVNAGQRVGLLGRTGAGKSTLLSALLRLLSTEGEIQIDGISWNSVSLQKWRKAFGVIPQKVFVFSGTFRKNLDPYEQWSDEEIWKVTEEVGLKSMIEQFPDKLNFVLVDGGYILSNGHKQLMCLARSILSKAKILLLDEPTAHLDPVTFQIIRKTLKHTFSNCTVILSEHRVEALLECQQFLVIEGCSVKQFDALQKLLTEASLFKQVFGHLDRAKLFTAHRRNSSKRKTRPKISALQEEAEEDLQETRL,soluble
17,MCSHGHSHNCAAEHIPEVPGDDVYRYDMVSYIDMEKVTTLNESVDGAGKKVFKVMEKRDDRLEYVESDCDHELLFNIPFTGHVRLTGLSIIGDEDGSHPAKIRLFKDREAMSFDDCSIEADQEIDLKQDPQGLVDYPLKASKFGNIHNLSILVDANFGEDETKIYYIGLRGEFQHEFRQRIAIATYESRAQLKDHKNEIPDAVAKGLF,not soluble
18,MSLALAIFDLDETLIHGDCATLWSEQMGRLGWVDSESFMRRNHELMDAYSHGKLAMEEFMDFSLEPMSGRTPEEVAHLVEPWVEEVIEPIIFSDACKAIAAHRQAGDRILVISASGTHLVKPIAARLGIDEVLGIELEVQHGVYSGRTVGTLTYREGKITRLLQWLDAEEENLEGATFYSDSRNDLPLLLRVDHPQVVNPDPVLREHAQKAGWPIHHWKEGHHHHHH,soluble
